Biological target: PD-1 (PDCD1, recombinant full length) (Homo sapiens, UniProt Q15116 Q15116:25-288)
Test: BLI; per-concentration fits 9.90, 4.17, 1.34 nM; phosphate pH 7.4, 137 mM NaCl, 2.7 mM KCl, 0.1% BSA, 0.01% Tween-20, 25 C
Conditions: tags: ACROBiosystems, produced in HEK293; label: 5' biotin (BLI) or FAM (flow); predicted hairpin-bulge / possible G-quadruplex
Protocol: Specific PD-1 5′ biotinylated DNA aptamer (Midland Oligos) were prepared in the concentration range of (10 nM and 100 nM). […] Octet Red analysis software (ForteBio) was used to analyze the sensorgram data.

Chain of PD-1 (PDCD1, recombinant full length) (Q15116 25-288, one chain of several): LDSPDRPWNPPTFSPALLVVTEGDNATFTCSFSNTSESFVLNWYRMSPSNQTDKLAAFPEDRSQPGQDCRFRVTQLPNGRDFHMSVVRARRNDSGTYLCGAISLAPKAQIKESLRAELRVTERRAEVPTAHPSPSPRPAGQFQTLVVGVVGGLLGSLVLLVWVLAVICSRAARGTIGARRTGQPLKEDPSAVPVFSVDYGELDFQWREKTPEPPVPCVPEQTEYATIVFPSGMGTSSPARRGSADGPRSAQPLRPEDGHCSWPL

B1: fpf2 (10-150-373) (ssDNA)
DNA: CCGTATACATACCTGATAGCGTATGCGAGGAAGTGGGCTTGGTGTGGTGGGCTTCTCTCAGTAGGTGCATAAGCGCATGCATGC
binding result: binds

Source: US20190233824A1, “PD-1 SPECIFIC APTAMERS” (THE METHODIST HOSPITAL SYSTEM, published 2019)
